For assay [1], the target named is T1, SARS-CoV-2 main protease (M^pro), wild type (SARS-CoV-2, UniProt P0DTD1). The assay is described as follows: […].
Assay [2] has as its target T1, SARS-CoV-2 main protease (M^pro), wild …. The assay is described as follows: cell-based or functional assay.

Where no end group is shown, it is not given here.

For YLQYAVLRHKRREC (also: cyclic, mode of cyclization not given here) [cyclic peptide 1], the affinity in assay [1] corresponds to a Ki of 14 nM. In addition, the “IC50, inhibition of M^pro proteolytic activity (FRET substrate cleavage)” value in assay [2] was determined as 70 nM.

Values taken from publication doi:10.1101/2021.08.23.457419 (bioRxiv, 2021).
